Measured values published in US12152088B2, “Co-assembly peptides, nanostructures, and methods of making and using the same” (University of Florida Research Foundation, Incorporated, priority 2016, dated 2024).

Experiments:
Assay type in all cases: physicochemical
[1] = Circular dichroism (secondary structure); conditions: peptide incubated alone; CD maxima at 220 nm, minima at 200 nm
Description: Circular Dichroism. Circular Dichroism was performed on an AVIV 202 spectrometer. Peptides were prepared in 1× PBS at 500 μM, unless stated otherwise. Samples were run 3 times, averaged, and converted to mean residue ellipticity. All data reported was for dynode values <500 V.

[2] = Macroscopic hydrogel formation; conditions: aqueous buffered solutions of 12 mM
Description: Macroscopic Hydrogel Formation. A 12 mM stock solution of CATCH(−) was prepared by dissolving dry peptide in 1× PBS and adjusting the pH to ˜7.6 with ammonium bicarbonate (Fisher). A 12 mM stock solution of CATCH(+) was prepared by dissolving dry peptide in 1×PBS and adjusting the pH to ˜7.2 with hydrochloric acid (0.5 N Fisher). CATCH peptide stock solutions were combined at a 1:1 (v/v) ratio in a 0.2 mL glass vial (Thermo), and the vial was gently swirled for 2 min until the hydrogel formed. The hydrogel was stained with red food coloring to aid visualization. Hydrogel images were recorded using a digital still camera.

[3] = Nanofiber sedimentation, fusion protein integration into CATCH nanofibers; conditions: 500 μM CATCH(4/4) or CATCH(6/6) nanofibers
Description: Briefly, 500 μM CATCH(4/4) nanofiber sedimentation in the presence of (FIG. 42A) ThT, (FIG. 42B) CATCH(6-)GFP, (FIG. 42C) mCATCH(6-)GFP. […] 500 μM CATCH(6/6) nanofiber sedimentation in the presence of (FIG. 42E) ThT, (FIG. 42F) CATCH(6-) GFP, (FIG. 42G) mCATCH(6-)GFP.

[4] = Protein incorporation / retention in macroscopic hydrogels
Description: Protein Incorporation into Macroscopic Hydrogels. Hydrogels were prepared as described above, except 1.5 μM CATCH(−)GFP or mCATCH(−)GFP was added to the 12 mM CATCH(−) solution. Immediately after hydrogel formation, fluorescence was visualized by placing the glass vials on a SafeImager 2.0 transilluminator (Invitrogen) and recording images with a digital still camera. 800 μL of PBS was then carefully overlaid on top of hydrogel. The samples were then incubated for 48 hours to evaluate the protein incorporation within the hydrogel. At various time points, fluorescence in the buffer supernatant was visualized by placing the glass vials on a SafeImager 2.0 transilluminator (Invitrogen) and recording images with a digital still camera. At the end-point, buffer supernatant was carefully removed by decanting and fluorescence was visualized by placing the glass vials on a SafeImager 2.0 transilluminator (Invitrogen) and recording images with a digital still camera.

Row | Substance | secondary structure [1] | flow behaviour / hydrogel formation [2] | integration into CATCH nanofibers [3] | hydrogel fluorescence after incubation ([4]; CATCH hydrogels under volumetric excess of 1× PBS for 48 h) | GFP in the buffer layer over hydrogels ([4]; excess buffer, up to 48 h)
1 | Ac-EQEFEFEFEQE-Am (Ac-EQEFEFEFEQE-NH2) [CATCH(−)] | predominantly random coil | free flowing | integrates into both CATCH(6/6) and CATCH(4/4) nanofibers |  | 
2 | Ac-QQKFKFKFKQQ-Am (Ac-QQKFKFKFKQQ-NH2) [CATCH(+)] | predominantly random coil | free flowing |  |  | 
3 | CATCH(−)GFP: recombinant fusion of CATCH(−) and superfolder green fluorescent protein (GFP) |  |  |  | retained their fluorescence | no GFP was detected
